The values that follow come from IntAct's records for PubMed 24217340.

To fix the notation:
B1: Zinc finger protein GLI1 (Homo sapiens), P08151 (parent)
chain: MFNSMTPPPISSYGEPCCLRPLPSQGAPSVGTEGLSGPPFCHQANLMSGPHSYGPARETNSCTEGPLFSSPRSAVKLTKKRALSISPLSDASLDLQTVIRTSPSSLVAFINSRCTSPGGSYGHLSIGTMSPSLGFPAQMNHQKGPSPSFGVQPCGPHDSARGGMIPHPQSRGPFPTCQLKSELDMLVGKCREEPLEGDMSSPNSTGIQDPLLGMLDGREDLEREEKREPESVYETDCRWDGCSQEFDSQEQLVHHINSEHIHGERKEFVCHWGGCSRELRPFKAQYMLVVHMRRHTGEKPHKCTFEGCRKSYSRLENLKTHLRSHTGEKPYMCEHEGCSKAFSNASDRAKHQNRTHSNEKPYVCKLPGCTKRYTDPSSLRKHVKTVHGPDAHVTKRHRGDGPLPRAPSISTVEPKREREGGPIREESRLTVPEGAMKPQPSPGAQSSCSSDHSPAGSAANTDSGVEMTGNAGGSTEDLSSLDEGPCIAGTGLSTLRRLENLRLDQLHQLRPIGTRGLKLPSLSHTGTTVSRRVGPPVSLERRSSSSSSISSAYTVSRRSSLASPFPPGSPPENGASSLPGLMPAQHYLLRARYASARGGGTSPTAASSLDRIGGLPMPPWRSRAEYPGYNPNAGVTRRASDPAQAADRPAPARVQRFKSLGCVHTPPTVAGGGQNFDPYLPTSVYSPQPPSITENAAMDARGLQEEPEVGTSMVGSGLNPYMDFPPTDTLGYGGPEGAAAEPYGARGPGSLPLGPGPPTNYGPNPCPQQASYPDPTQETWGEFPSHSGLYPGPKALGGTYSQCPRLEHYGQVQVKPEQGCPVGSDSTGLAPCLNAHPSEGPPHPQPLFSHYPQPSPPQYLQSGPYTQPPPDYLPSEPRPCLDFDSPTHSTGQLKAQLVCNYVQSQQELLWEGGGREDAPAQEPSYQSPKFLGGSQVSPSRAKAPVNTYGPGFGPNLPNHKSGSYPTPSPCHENFVVGANRASHRAAAPPRLLPPLPTCYGPLKVGGTNPSCGHPEVGRLGGGPALYPPPEGQVCNPLDSLDLDNTQLDFVAILDEPQGLSPPPSHDQRGSSGHTPPPSGPPNMAVGNMSVLLRSLPGETEFLNSSA
partner: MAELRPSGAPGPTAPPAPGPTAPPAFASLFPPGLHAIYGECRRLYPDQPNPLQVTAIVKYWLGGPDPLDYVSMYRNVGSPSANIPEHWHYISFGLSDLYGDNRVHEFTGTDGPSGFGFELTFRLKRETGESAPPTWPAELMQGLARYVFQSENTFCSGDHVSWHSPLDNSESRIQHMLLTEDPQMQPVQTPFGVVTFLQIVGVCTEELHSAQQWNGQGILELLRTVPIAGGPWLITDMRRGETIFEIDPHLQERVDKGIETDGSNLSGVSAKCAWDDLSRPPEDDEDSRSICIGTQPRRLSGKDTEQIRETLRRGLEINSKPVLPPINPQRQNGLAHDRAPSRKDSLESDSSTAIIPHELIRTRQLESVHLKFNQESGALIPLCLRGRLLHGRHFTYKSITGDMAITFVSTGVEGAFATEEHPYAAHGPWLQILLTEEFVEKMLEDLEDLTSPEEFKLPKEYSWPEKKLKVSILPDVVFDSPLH
B2: Suppressor of fused homolog (Homo sapiens), Q9UMX1 (parent)
chain: B1 partner

Variants of B1 are the subject of one assay. Conditions: with sufu_human SUFU, Q9UMX1.
Take G122A;H123A;L124D: the “effect of a mutation on the interaction” value is recorded as “decreasing interaction”.

In the next assay the parent is B2. To be noted: with gli2_mouse Gli2, Q0VGT2.
With MAELRPSGAPGPTAPPAPGPTAPPAFASLFPPGLHAIYGECRRLYPDQPNPLQVTAIVKYWLGGPDPLDYVSMYRNVGSPSANIPEHWHYISFGLSDLYGDNRVHEFTGTDGPSGFGFELTFRLKRETGESAPPTWPAELMQGLARYVFQSENTFCSGDHVSWHSPLDNSESRIQHMLLTEDPQMQPVQTPFGVVTFLQIVGVCTEELHSAQQWNGQGILELLRTVPIAGGPWLITDMRRGETIFEIDPHLQERVDKGIETDGSNLSGVSAKCAWDDLSRPPEDDEDSRSICIGTQPRRLSGKDTEQIRETLRRGLEINSKPVLPPINPQRQNGLAHDRAPSRKDSLESDSSTAIIPHELIRTRQLESVHLKFNQESGARIPLCLRGRLLHGRHFTYKSITGDMAITFVSTGVEGAFATEEHPYAAHGPWLQILLTEEFVEKMLEDLEDLTSPEEFKLPKEYSWPEKKLKVSILPDVVFDSPLH [L380R], the “effect of a mutation on the interaction” value was “decreasing interaction”. As to MAELRPSGAPGPTAPPAPGPTAPPAFASLFPPGLHAIYGECRRLYPDQPNPLQVTAIVKYWLGGPDPLDYVSMYRNVGSPSANIPEHWHYISFGLSDLYGDNRVHEFTGTDGPSGFGFELTFRLKRETGESAPPTWPAELMQGLARRVFQSENTFCSGRHVSWHSPLDNSESRIQHMLLTEDPQMQPVQTPFGVVTFLQIVGVCTEELHSAQQWNGQGILELLRTVPIAGGPWLITDMRRGETIFEIDPHLQERVDKGIETDGSNLSGVSAKCAWDDLSRPPEDDEDSRSICIGTQPRRLSGKDTEQIRETLRRGLEINSKPVLPPINPQRQNGLAHDRAPSRKDSLESDSSTAIIPHELIRTRQLESVHLKFNQESGARIPLCLRGRLLHGRHFTYKSITGDMAITFVSTGVEGAFATEEHPYAAHGPWLQILLTEEFVEKMLEDLEDLTSPEEFKLPKEYSWPEKKLKVSILPDVVFDSPLH [Y147R;D159R;L380R], the “effect of a mutation on the interaction” value is “disrupting interaction”.

The next assay covers variants of B2. Conditions: with gli2_mouse Gli2, Q0VGT2. This is another data set of the same source.
MAELRPSGAPGPTAPPAPGPTAPPAFASLFPPGLHAIYGECRRLYPDQPNPLQVTAIVKYWLGGPDPLDYVSMYRNVGSPSANIPEHWHYISFGLSDLYGDNRVHEFTGTDGPSGFGFELTFRLKRETGESAPPTWPAELMQGLARYVFQSENTFCSGDHVSWHSPLDNSESRIQHMLLTEDPQMQPVQTPFGVVTFLQIVGVCTEELHSAQQWNGQGILELLRTVPIAGGPWLITDMRRGETIFEIDPHLQERVDKGIETDGSNLSGVSAKCAWDDLSRPPEDDEDSRSICIGTQPRRLSGKDTEQIRETLRRGLEINSKPVLPPINPQRQNGLAHDRAPSRKDSLESDSSTAIIPHELIRTRQLESVHLKFNQESGARIPLCLRGRLLHGRHFTYKSITGDMAITFVSTGVEGAFATEEHPYAAHGPWLQILLTEEFVEKMLEDLEDLTSPEEFKLPKEYSWPEKKLKVSILPDVVFDSPLH [L380R]: the “effect of a mutation on the interaction” value is “disrupting interaction”.

The next assay covers variants of B2. Conditions: with gli1_human GLI1, P08151.
On to MAELRPSGAPGPTAPPAPGPTAPPAFASLFPPGLHAIYGECRRLYPDQPNPLQVTAIVKYWLGGPDPLDYVSMYRNVGSPSANIPEHWHYISFGLSDLYGDNRVHEFTGTDGPSGFGFELTFRLKRETGESAPPTWPAELMQGLARRVFQSENTACSGRHVSWHSPLDNSESRIQHMLLTEDPQMQPVQTPFGVVTFLQIVGVCTEELHSAQQWNGQGILELLRTVPIAGGPWLITDMRRGETIFEIDPHLQERVDKGIETDGSNLSGVSAKCAWDDLSRPPEDDEDSRSICIGTQPRRLSGKDTEQIRETLRRGLEINSKPVLPPINPQRQNGLAHDRAPSRKDSLESDSSTAIIPHELIRTRQLESVHLKFNQESGALIPLCLRGRLLHGRHFTYKSITGDMAITFVSTGVEGAFATEEHPYAAHGPWLQILLTEEFVEKMLEDLEDLTSPEEFKLPKEYSWPEKKLKVSILPDVVFDSPLH [Y147R;F155A;D159R], for which the “effect of a mutation on the interaction” value is reported as “disrupting interaction”. As for MAELRPSGAPGPTAPPAPGPTAPPAFASLFPPGLHAIYGECRRLYPDQPNPLQVTAIVKYWLGGPDPLDYVSMYRNVGSPSANIPEHWHYISFGLSDLYGDNRVHEFTGTDGPSGFGFELTFRLKRETGESAPPTWPAELMQGLARRVFQSENTACSGDHVSWHSPLDNSESRIQHMLLTEDPQMQPVQTPFGVVTFLQIVGVCTEELHSAQQWNGQGILELLRTVPIAGGPWLITDMRRGETIFEIDPHLQERVDKGIETDGSNLSGVSAKCAWDDLSRPPEDDEDSRSICIGTQPRRLSGKDTEQIRETLRRGLEINSKPVLPPINPQRQNGLAHDRAPSRKDSLESDSSTAIIPHELIRTRQLESVHLKFNQESGALIPLCLRGRLLHGRHFTYKSITGDMAITFVSTGVEGAFATEEHPYAAHGPWLQILLTEEFVEKMLEDLEDLTSPEEFKLPKEYSWPEKKLKVSILPDVVFDSPLH [Y147R;F155A], the “effect of a mutation on the interaction” value was “disrupting interaction”.

Variants of B2 are the subject of the next assay. To be noted: with gli1_human GLI1, P08151. The source holds these as a separate data set.
Turning to MAELRPSGAPGPTAPPAPGPTAPPAFASLFPPGLHAIYGECRRLYPDQPNPLQVTAIVKYWLGGPDPLDYVSMYRNVGSPSANIPEHWHYISFGLSDLYGDNRVHEFTGTDGPSGFGFELTFRLKRETGESAPPTWPAELMQGLARRVFQSENTFCSGRHVSWHSPLDNSESRIQHMLLTEDPQMQPVQTPFGVVTFLQIVGVCTEELHSAQQWNGQGILELLRTVPIAGGPWLITDMRRGETIFEIDPHLQERVDKGIETDGSNLSGVSAKCAWDDLSRPPEDDEDSRSICIGTQPRRLSGKDTEQIRETLRRGLEINSKPVLPPINPQRQNGLAHDRAPSRKDSLESDSSTAIIPHELIRTRQLESVHLKFNQESGARIPLCLRGRLLHGRHFTYKSITGDMAITFVSTGVEGAFATEEHPYAAHGPWLQILLTEEFVEKMLEDLEDLTSPEEFKLPKEYSWPEKKLKVSILPDVVFDSPLH [Y147R;D159R;L380R], the “effect of a mutation on the interaction” value is “disrupting interaction”. In the case of MAELRPSGAPGPTAPPAPGPTAPPAFASLFPPGLHAIYGECRRLYPDQPNPLQVTAIVKYWLGGPDPLDYVSMYRNVGSPSANIPEHWHYISFGLSDLYGDNRVHEFTGTDGPSGFGFELTFRLKRETGESAPPTWPAELMQGLARRVFQSENTACSGDHVSWHSPLDNSESRIQHMLLTEDPQMQPVQTPFGVVTFLQIVGVCTEELHSAQQWNGQGILELLRTVPIAGGPWLITDMRRGETIFEIDPHLQERVDKGIETDGSNLSGVSAKCAWDDLSRPPEDDEDSRSICIGTQPRRLSGKDTEQIRETLRRGLEINSKPVLPPINPQRQNGLAHDRAPSRKDSLESDSSTAIIPHELIRTRQLESVHLKFNQESGALIPLCLRGRLLHGRHFTYKSITGDMAITFVSTGVEGAFATEEHPYAAHGPWLQILLTEEFVEKMLEDLEDLTSPEEFKLPKEYSWPEKKLKVSILPDVVFDSPLH [Y147R;F155A], the “effect of a mutation on the interaction” value is given as “decreasing interaction”.
